Laboratory results taken from patent publication US20200216495A1 (ADRX, published 2020).
“And” between values parts separate entries of the source, which are not always exact repeats. Equal entries are not always repeated. Square brackets hold non-standard residues; d marks the D form. Ends that are not written are not given here.

B1: klkivw (peptide)
peptide: [dK][dL][dK][dI][dV][dW]
B2: rlrihw (peptide)
peptide: [dR][dL][dR][dI][dH][dW]
B3: wikivr (peptide)
peptide: [dW][dI][dK][dI][dV][dR]
B4: irihyhlk (peptide)
peptide: [dI][dR][dI][dH][dY][dH][dL][dK]
B5: wrtktrw (peptide)
peptide: [dW][dR][dT][dK][dT][dR][dW]
B6: wrlrihe (peptide)
peptide: [dW][dR][dL][dR][dI][dH][dE]
B7: rirlhw (peptide)
peptide: [dR][dI][dR][dL][dH][dW]
B8: yririnhl (peptide)
peptide: [dY][dR][dI][dR][dI][dN][dH][dL]
B9: lkirihah (peptide)
peptide: [dL][dK][dI][dR][dI][dH][dA][dH]
B10: wdlrlqyw (peptide)
peptide: [dW][dD][dL][dR][dL][dQ][dY][dW]
B11: wrlkvew (peptide)
peptide: [dW][dR][dL][dK][dV][dE][dW]
B12: wrhkvrw (peptide)
peptide: [dW][dR][dH][dK][dV][dR][dW]
B13: ekirihy (peptide)
peptide: [dE][dK][dI][dR][dI][dH][dY]
B14: ekirihyh (peptide)
peptide: [dE][dK][dI][dR][dI][dH][dY][dH]
B15: klklrw (peptide)
peptide: [dK][dL][dK][dL][dR][dW]
B16: erlrihw (peptide)
peptide: [dE][dR][dL][dR][dI][dH][dW]
B17: lkirieyh (peptide)
peptide: [dL][dK][dI][dR][dI][dE][dY][dH]
B18: fhleirhw (peptide)
peptide: [dF][dH][dL][dE][dI][dR][dH][dW]
B19: wrlkhrw (peptide)
peptide: [dW][dR][dL][dK][dH][dR][dW]
B20: wrfhihfy (peptide)
peptide: [dW][dR][dF][dH][dI][dH][dF][dY]
B21: fklhlkhy (peptide)
peptide: [dF][dK][dL][dH][dL][dK][dH][dY]
B22: ilkivw (peptide)
peptide: [dI][dL][dK][dI][dV][dW]
B23: ihyhrikl (peptide)
peptide: [dI][dH][dY][dH][dR][dI][dK][dL]
B24: wkvwgrvw (peptide)
peptide: [dW][dK][dV][dW]G[dR][dV][dW]
modifications: not fully specified (residue 5); printed as wkvwgrvw
B25: rlkvww (peptide)
peptide: [dR][dL][dK][dV][dW][dW]
B26: wklklwww (peptide)
peptide: [dW][dK][dL][dK][dL][dW][dW][dW]
B27: wrlrvw (peptide)
peptide: [dW][dR][dL][dR][dV][dW]
B28: whvrlnhl (peptide)
peptide: [dW][dH][dV][dR][dL][dN][dH][dL]
B29: yrirlehv (peptide)
peptide: [dY][dR][dI][dR][dL][dE][dH][dV]
B30: twrlvl (peptide)
peptide: [dT][dW][dR][dL][dV][dL]
B31: frvkiehw (peptide)
peptide: [dF][dR][dV][dK][dI][dE][dH][dW]
B32: wlkvrw (peptide)
peptide: [dW][dL][dK][dV][dR][dW]
B33: wqlqvrw (peptide)
peptide: [dW][dQ][dL][dQ][dV][dR][dW]
B34: rlwvrw (peptide)
peptide: [dR][dL][dW][dV][dR][dW]
B35: frlriwwf (peptide)
peptide: [dF][dR][dL][dR][dI][dW][dW][dF]
B36: wwlklrww (peptide)
peptide: [dW][dW][dL][dK][dL][dR][dW][dW]
B37: wflrihw (peptide)
peptide: [dW][dF][dL][dR][dI][dH][dW]
B38: leikirhw (peptide)
peptide: [dL][dE][dI][dK][dI][dR][dH][dW]
B39: klkikw (peptide)
peptide: [dK][dL][dK][dI][dK][dW]
B40: rihyhlki (peptide)
peptide: [dR][dI][dH][dY][dH][dL][dK][dI]
B41: fwlrihwf (peptide)
peptide: [dF][dW][dL][dR][dI][dH][dW][dF]
B42: wrlwihww (peptide)
peptide: [dW][dR][dL][dW][dI][dH][dW][dW]
B43: welkvrw (peptide)
peptide: [dW][dE][dL][dK][dV][dR][dW]
B44: rlkwrw (peptide)
peptide: [dR][dL][dK][dW][dR][dW]
B45: yrvriqhi (peptide)
peptide: [dY][dR][dV][dR][dI][dQ][dH][dI]
B46: vkvwgrlw (peptide)
peptide: [dV][dK][dV][dW]G[dR][dL][dW]
modifications: not fully specified (residue 5); printed as vkvwgrlw
B47: lrieiewh (peptide)
peptide: [dL][dR][dI][dE][dI][dE][dW][dH]
B48: tlkiew (peptide)
peptide: [dT][dL][dK][dI][dE][dW]
B49: lkvrww (peptide)
peptide: [dL][dK][dV][dR][dW][dW]
B50: fhieirhf (peptide)
peptide: [dF][dH][dI][dE][dI][dR][dH][dF]
B51: fklklwwf (peptide)
peptide: [dF][dK][dL][dK][dL][dW][dW][dF]
B52: felrikhy (peptide)
peptide: [dF][dE][dL][dR][dI][dK][dH][dY]
B53: wrvhfehw (peptide)
peptide: [dW][dR][dV][dH][dF][dE][dH][dW]
B54: awakvrw (peptide)
peptide: [dA][dW][dA][dK][dV][dR][dW]
B55: wrllvrww (peptide)
peptide: [dW][dR][dL][dL][dV][dR][dW][dW]
B56: ihyhlkir (peptide)
peptide: [dI][dH][dY][dH][dL][dK][dI][dR]

Molecular target: Tau40 P301L protein (human)
Experiment: cell-based or functional assay

Binder	IC50, Tau40 assay (ThT)
B1	6.9 µM
B2	6.87 µM
B3	6.97 µM
B4	7.39 µM
B5	8.93 µM
B6	10 µM
B7	6.97 µM
B8	6.5 µM
B9	6.41 µM
B10	8.33 µM and 10.1 µM
B11	6.67 µM
B12	5.5 µM
B13	5.58 µM
B14	7.42 µM
B15	5.92 µM and 5.99 µM
B16	9.9 µM
B17	8.14 µM
B18	6.87 µM
B19	5.86 µM

Binder	IC50, Tau40 assay (ThT)
B20	6.53 µM and 7 µM
B21	7.19 µM and 7.53 µM
B22	9.32 µM
B23	5.12 µM
B24	8.42 µM and 14.1 µM
B25	7.01 µM
B26	9.91 µM and 10.8 µM
B27	5.48 µM and 5.5 µM
B28	6.39 µM
B29	6.3 µM
B30	7.46 µM
B31	5.25 µM
B32	5.51 µM
B33	6.57 µM
B34	8.02 µM
B35	6.85 µM and 10.8 µM
B36	7.64 µM
B37	8.71 µM
B38	5.38 µM and 8.72 µM

Binder	IC50, Tau40 assay (ThT)
B39	6.87 µM
B40	6.63 µM
B41	7.28 µM and 7.56 µM
B42	5.99 µM and 7.56 µM
B43	7.92 µM
B44	5.62 µM
B45	5.13 µM
B46	6.72 µM
B47	5.89 µM and 9.68 µM
B48	8.08 µM
B49	6.48 µM
B50	6.06 µM
B51	7.22 µM and 15 µM
B52	6.57 µM and 12 µM
B53	6.86 µM
B54	8.38 µM
B55	6.46 µM
B56	9.7 µM
